US20230121197A1, “ANTIBODIES SPECIFICALLY BINDING THE CARBOXYMETHYLATED CATALYTIC SUBUNIT OF PROTEIN PHOSPHATASE 2A” (Medizinische Universität Wien, priority 2020, published 2023)

Tests used:
[1] = target: T1, PP2Ac (Homo sapiens, UniProt P67775); assay: Western blot of human cell lysates (HAP1, HEK293; NaOH treatment, Lcmt-1-KO); type: binding; conditions: HAP1, HEK293
T1 construct: the carboxy-terminal methyl group was chemically removed from cellular PP2Ac; endogenous in cells; host or cells: HAP1 wild type, HAP1 Lcmt-1-KO, HEK293Trex / HEK293T
T1 sequence (P67775 whole entry): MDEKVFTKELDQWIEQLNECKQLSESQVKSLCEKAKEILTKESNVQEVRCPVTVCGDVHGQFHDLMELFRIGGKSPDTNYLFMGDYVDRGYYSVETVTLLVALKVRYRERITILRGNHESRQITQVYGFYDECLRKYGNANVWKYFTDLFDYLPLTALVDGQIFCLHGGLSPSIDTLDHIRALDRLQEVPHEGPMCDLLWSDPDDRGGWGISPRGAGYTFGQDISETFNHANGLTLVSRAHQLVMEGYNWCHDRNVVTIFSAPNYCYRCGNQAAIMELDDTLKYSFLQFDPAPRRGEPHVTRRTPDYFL
Protocol: NIH3T3 mouse fibroblasts and human embryonic kidney cells (HEK293Trex) were grown in DMEM+10% FCS+2 mM L-glutamine (Sigma, G2150)+100 units/ml Penicillin/0.1 mg/ml Streptomycin at 37° C. in a 7.5% CO2 atmosphere. HAP1 wild type and HAP1 Lcmt-1-KO cells (Leucine carboxyl methyltransferase 1 deleted by CRISPR/Cas9; Horizon Discovery, #C631 and #HZGHC004373c001) were grown in Iscove's Modified Dulbecco's Medium (IMDM, Thermo Fischer Scientific, Life Technologies #12440053) supplemented with 10% (v/v) Fetal Calf Serum (FCS) (Sigma #F7524, lot 104M3333), GlutaMAX™ (Thermo Fischer Scientific, Life Technologies #35050-38, lot 1895829), and Penicillin-Streptomycin solution (Sigma, #P4333, lot 125M4781V) in a 5% CO2 atmosphere. Of note, HAP1 is a near-haploid human cell line that was derived from the chronic myelogenous leukemia (CML) cell line KBM-7 (Carette (2011), Nature 477(7364):340-3). For cell lysis, exponentially growing cells were washed once with ice-cold PBS, once with ice-cold IP-Wash buffer (20 mmol/l Tris pH 8.0, 135 mmol/l NaCl, 10% glycerol) and lysed on the petri-dish in ice-cold IP-Lyse buffer (18 mmol/l Tris pH 8.0, 122 mmol/l NaCl, 9% glycerol, 1% w/v NP-40) for 20 min at 4° C. rocking. Lysed cells were transferred to Eppendorf 1.5 ml tubes and centrifuged for 15 min at 14,000 rpm at 4° C. in a Beckman & Coulter Microfuge 18 centrifuge. The protein concentration was determined with the Protein Assay Dye Reagent (Biorad, 500-0006) and measurement of absorbance at 595 nm in a Hitachi U-2000 spectrophotometer. […]
To test these antibodies in the western blot analysis with methylated and non-methylated full-length PP2Ac the methyl group was chemically removed from cellular PP2Ac by treating lysates of the human cell line, HAP1, with NaOH, as described in Example 2. […] In agreement with the results of the NaOH experiments, […] of PP2Ac were detected in HAP1 cells that lack the PP2A methyltransferase LCMT-1 indicating the preference of these antibodies for non-methylated PP2Ac (FIG. 22). […]

[2] = target: T2, C-terminal PP2Ac peptides L309, Y307F, pY307, meL309 (Homo sapiens, UniProt P67775); assay: ELISA with CGEPHVTRRTPDYFL peptides free or linked to BSA (scFv and recombinant 7C10-C5); type: binding; conditions: peptides free or linked to BSA
T2 construct: coated with C-terminal PP2Ac peptides either free or linked to BSA; BSA (carrier)
Protocol: Nunc Medisorp 96-well ELISA flat-bottom plates were coated with C-terminal PP2Ac peptides either free or linked to BSA. Specifically, the peptides were: unmodified L309 (CGEPHVTRRTPDYFL) (SEQ ID NO:49), Y307F (CGEPHVTRRTPDFFL) (SEQ ID NO:50), pY307 (CGEPHVTRRTPDpYFL) (SEQ ID NO:51) or carboxymethylated meL309 (CGEPHVTRRTPDYFL-CH3) (SEQ ID NO:49), on the ELISA plate at 8 μg/ml in TBS (free) or 1 μg/ml in TBS (linked to BSA) at 4° C. overnight. After washing twice with TBS, the wells were incubated with 2% BSA in TBS for 1 h at RT. After washing once with TBS, the wells were incubated with single clone hybridoma cell culture supernatant, clone 7C10-C5 1:50 (7C10 X63), recombinant single chain variable fragment of antibody 7C10-C5, undiluted (7C10 scFvs), or recombinant bivalent single chain variable fragment of antibody 7C10-C5, undiluted (7C10 bi-scFvs). After washing 3× with TBS, wells incubated with recombinant antibodies were incubated with monoclonal antibody 16B12, 1:10000 (recognizing the hemagglutinin tag on the recombinant antibody) in 1% BSA TBS 1 h at room temperature. After washing 3× in TBS, incubation with anti-mouse-HRP coupled secondary antibody for 1 h at RT was performed. Bound antibodies were detected by colorimetric reaction with 3,3′,5,5′-Tetramethylbenzidine as substrate, and absorbance was measured at 450 nm. Values were normalized to meL309 which was arbitrarily set to 1. Average and standard deviation of N=3 experiments are shown.
Nunc Medisorp 96-well ELISA flat-bottom plates were coated with peptides either free or linked to BSA, L309 (CGEPHVTRRTPDYFL) (SEQ ID NO:49) or meL309 (CGEPHVTRRTPDYFL-CH3) (SEQ ID NO:49), on the ELISA plate at 0.5 μg/ml in TBS (free) or […] in TBS (linked to BSA) at 4° C. over night. After washing twice with TBS, the wells were incubated with 2% BSA in TBS for 1 h at RT. After washing once with TBS, the wells were incubated with single clone hybridoma cell culture supernatant, clone 7C10-C5 1:50 (7C10 X63), or recombinant antibody 7C10-C5 undiluted (rec 7C10). After washing 3× with TBS, incubation with anti-mouse-HRP coupled secondary antibody for 1 h at RT was performed. Bound antibodies were detected by colorimetric reaction with 3,3′,5,5′-Tetramethylbenzidine as substrate, and absorbance was measured at 450 nm. Values were normalized to meL309 incubated with 7C10 X63, which was arbitrarily set to 1. Average and standard deviation of N=3 experiments are shown (FIG. 30).

[3] = target: T3, C-terminal PP2Ac peptide Y307F, CGEPHVTRRTPDFFL (15-mer); assay: Western blot of 100 ng BSA crosslinked with peptide, detected through 16B12
T3 construct: Non-carboxymethylated; Phe in place of Tyr307; Crosslinked to BSA in the Western blot; free or linked to BSA in the ELISA
T3 peptide: CGEPHVTRRTPDFFL
Protocol: 100 ng of BSA crosslinked with peptides (L309: […] (SEQ ID NO:49), Y307F: […] (SEQ ID NO.50), pY307: […]pYFL (SEQ ID NO:51) or meL309: […]-CH₃) (SEQ ID NO:49) was separated by 10% SDS-PAGE and transferred to nitrocellulose membrane (0.2 μm, GE Healthcare). […] The membranes were blocked in 3% non-fatty dry milk (NFDM) in TBS-Tween for 1 h at RT and incubated with single clone hybridoma cell culture supernatant, clone 7C10-C5 diluted 1:100 in 0.5% NFDM in TBS-T (7C10 X63), recombinant single chain variable fragment of antibody 7C10-C5, undiluted (7C10 scFvs), recombinant bivalent single chain variable fragment 7C10-C5, undiluted (7C10 bi-scFvs) or single clone hybridoma cell culture supernatant, clone 1D7 (binding to non-carboxymethylated PP2Ac) 1:100 in 0.5% NFDM in TBS-T o/n at 4° C. After washing 3×5 min in TBS-T, blots incubated with recombinant antibodies were incubated with mouse anti-HA monoclonal antibody 16B12 (recognizing the hemagglutinin (HA) tag on the recombinant antibody), 1:10000 in 0.5% NFDM in TBS-T 2 h at room temperature. After washing 3×5 min in TBS-T, incubation with anti-mouse-HRP coupled secondary antibody for 1 h at RT and 3×10 min washes in TBS-T was performed. ECL was performed with GE Healthcare ECL reagents (RPN2106) mixed 1:3 with Clarity™ Western ECL Substrate, 500 ml #1705061 (Biorad). Signals were detected by exposure of X-ray films. […]

B1: recombinant 7C10-C5: recombinant 7C10-C5 antibody with mIgCK light chain and mIgG2a heavy chain (SEQ ID NO:123, 125) (protein)
light: MDMRVPAQLLGLLLLWLSGARCDVLMTQTPLSLPVSLGDQASISCRSSQSIVHSNGNTYLEWYLQKPGQSPKLLIYKVSNRFSGVPDRFSGSGSGTDFTLKINRVEAEDLGVYYCFQGSHVPWTFGGGTKLEIKADAAPTVSIFPPSSEQLTSGGASVVCFLNNFYPKDINVKWKIDGSERQNGVLNSWTDQDSKDSTYSMSSTLTLTKDEYERHNSYTCEATHKTSTSPIVKSFNRNEC
heavy: MYRMQLLSCIALSLALVTNSDVQLQESGPGLVKPSQSLSLTCSVTGYSITSGYYWNWIRQFPGNKLEWMGYISYDGSNNYNPSLKNRISITRDTSKNQFFLKLNSVTTEDTATYYCAGRFAYWGQGTLVTVSAAKTTAPSVYPLAPVCGDTTGSSVTLGCLVKGYFPEPVTLTWNSGSLSSGVHTFPAVLQSDLYTLSSSVTVTSSTWPSQSITCNVAHPASSTKVDKKIEPRGPTIKPCPPCKCPAPNLLGGPSVFIFPPKIKDVLMISLSPIVTCVVVDVSEDDPDVQISWFVNNVEVHTAQTQTHREDYNSTLRVVSALPIQHQDWMSGKEFKCKVNNKDLPAPIERTISKPKGSVRAPQVYVLPPPEEEMTKKQVTLTCMVTDFMPEDIYVEWTNNGKTELNYKNTEPVLDSDGSYFMYSKLRVEKKNWVERNSYSCSVVHEGLHNHHTTKSFSRTPGK
modifications: Amino acid sequence of the recombinant 7C10-C5 light chain; Amino acid sequence of the recombinant 7C10-C5 heavy chain
- detection of PP2Ac in untreated versus NaOH treated cell lysates [1]: only detected methylated PP2Ac in the untreated cell lysates but not in the NaOH treated lysates
- recognition of meL309 versus non-carboxymethylated peptides [2]: Specific for the α-Carboxymethylated PP2Ac

B2: recombinant bivalent single chain variable fragment (scFv) of antibody 7C10-C5 (scFv)
scFv: DVLMTQTPLSLPVSLGDQASISCRSSQSIVHSNGNTYLEWYLQKPGQSPKLLIYKVSNRFSGVPDRFSGSGSGTDFTLKINRVEAEDLGVYYCFQGSHVPWTFGGGTKLEIKSSGGGGSGGGGGGSSRSSLDVQLQESGPGLVKPSQSLSLTCSVTGYSITSGYYWNWIRQFPGNKLEWMGYISYDGSNNYNPSLKNRISITRDTSKNQFFLKLNSVTTEDTATYYCAGRFAYWGQGTLVTVSAAKTTPPSVGSGSGSGSGSGSGSGSGSGSGSGSGSGSGSDVLMTQTPLSLPVSLGDQASISCRSSQSIVHSNGNTYLEWYLQKPGQSPKLLIYKVSNRFSGVPDRFSGSGSGTDFTLKINRVEAEDLGVYYCFQGSHVPWTFGGGTKLEIKSSGGGGSGGGGGGSSRSSLDVQLQESGPGLVKPSQSLSLTCSVTGYSITSGYYWNWIRQFPGNKLEWMGYISYDGSNNYNPSLKNRISITRDTSKNQFFLKLNSVTTEDTATYYCAGRFAYWGQGTLVTVSAAKTTPPSVTSGQAGQHHHHHHGAYPYDVPDYAS
notes: Two VL-linker-VH units joined by a (Gly-Ser)x15 linker, C-terminal 6xHis and HA tag; HEK293T supernatant, undiluted; Signal peptide (residues 1-22, before the first VL) left out by counting; also called 7C10 bi-scFvs; bivalent 7C10-C5 scFv
- binding result [3]: no binding (tested: undiluted supernatant)

B3: recombinant monovalent single chain variable fragment (scFv) of antibody 7C10-C5 (scFv)
scFv: DVLMTQTPLSLPVSLGDQASISCRSSQSIVHSNGNTYLEWYLQKPGQSPKLLIYKVSNRFSGVPDRFSGSGSGTDFTLKINRVEAEDLGVYYCFQGSHVPWTFGGGTKLEIKSSGGGGSGGGGGGSSRSSLDVQLQESGPGLVKPSQSLSLTCSVTGYSITSGYYWNWIRQFPGNKLEWMGYISYDGSNNYNPSLKNRISITRDTSKNQFFLKLNSVTTEDTATYYCAGRFAYWGQGTLVTVSAAKTTPPSVTSGQAGQHHHHHHGAYPYDVPDYAS
notes: VL - 19 aa linker - VH - 8 aa of CH1 - 6xHis - HA tag; secreted into HEK293T supernatant, used undiluted; also called 7C10 scFvs; monovalent 7C10-C5 scFv
- binding result [3]: no binding (tested: undiluted supernatant)
